Laboratory results published in patent publication US12072338B2, “Pharmaceutical peptides for the treatment of inflammatory diseases” (PROTAGONISTS LTD., priority 2007, dated 2024).
Read-outs that look alike come from different tables or passages of the source.

Assays:
SDF1-α = target: T1, SDF1-α (Homo sapiens, UniProt P48061); test: Micro-array analysis of chemokine binding peptides: SDF1-α
T1 construct: purchased 300-28a
In short: (§1)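 Spot CK 25/50 μg/ml, 5 repeats; block 1 h RT; recombinant phage 10^7 pfu/μl, 1 h RT, agitation; anti-M13 mAb 45 min RT; Cy3 GAM IgG; scan, RF vs CK conc.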

RANTES = target: T2, RANTES (Homo sapiens, UniProt P13501); test: Micro-array analysis of chemokine binding peptides: RANTES
T2 construct: purchased 300-06
T2 sequence (P13501 24-91): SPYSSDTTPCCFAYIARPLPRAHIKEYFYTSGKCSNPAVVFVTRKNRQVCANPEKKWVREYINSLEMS
In short: as §1

Eotaxin = target: T3, Eotaxin (Homo sapiens, UniProt P51671); test: Micro-array analysis of chemokine binding peptides: Eotaxin
T3 construct: purchased 300-21
In short: as §1

MCP-1 = target: T4, MCP-1 (Homo sapiens, UniProt P13500); test: Micro-array analysis of chemokine binding peptides: MCP-1; conditions: for binding to MCP-1 with relatively high affinity (Relative Fluorescence Units): limit = start of the upper 75% of that peptide's response range
T4 construct: purchased 300-04
In short: as §1

IP-10 = target: T5, IP-10 (Homo sapiens, UniProt P02778); test: Micro-array analysis of chemokine binding peptides: IP-10
T5 construct: purchased 300-12
T5 sequence (P02778 22-98): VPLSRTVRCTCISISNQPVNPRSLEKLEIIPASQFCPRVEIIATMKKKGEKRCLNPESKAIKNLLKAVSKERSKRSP
In short: as §1

MIP3-α = target: T6, MIP3-α (Homo sapiens, UniProt P78556); test: Micro-array analysis of chemokine binding peptides: MIP3-α
T6 construct: purchased 300-29A
Procedure: (1) Printing: Chemokine (CK) solution (in water) was serially diluted with Print Reagent (GenTel BioSurfaces USA) to final concentrations of 50 μg and 25 μg/ml. BSA/BSA-Biotin control solutions (in water) were diluted with Print Reagent to 100 μg/ml. Amplified stock of M13 phage control (M13KEgIII Cloning Vector, New England Biolabs, Cat.No.E8101S) was stored in Tris Buffered Saline (TBS; pH7.5, 4° C.) and diluted with Print Reagent to the working titre (10^8 pfu/μl). An automated spotting robot (16 pin print tool, 0.4 mm head; BioRobotics, UK) was used to print the CK/BSA control/M13 control, 5 repeats per sample (CK 25 μg/ml and 50 μg/ml; BSA 100 μg/ml; M13 20 μl), on PATH Protein Microarray Slides (GenTel, Prod.No. 2-1005/-1025) at […], and 50-70% relative humidity. Printed micro-array slides were stored at Room Temperature (RT) or 4° C. for at least 24 h before use. […]
(11) Analysis: Quantitative analysis of micro-array was performed by the SpotReader program of Niles Scientific (USA) and presented as Relative Fluorescence (RF) as a function of CK concentration. Micro-array readout (Cy3 fluorescence) was quantified to determine the relative binding affinities of a CBP for the CKs and by inference, the specificity of the CBP for binding to a CK.

[1] = limit = start of the upper 75% of that peptide's response range

T4 sequence (P13500 24-99): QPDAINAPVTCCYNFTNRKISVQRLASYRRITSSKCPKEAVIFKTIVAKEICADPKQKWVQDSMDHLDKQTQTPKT
T3 sequence (P51671 24-97): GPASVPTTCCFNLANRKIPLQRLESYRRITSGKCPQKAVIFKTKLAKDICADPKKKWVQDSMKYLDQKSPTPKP
T1 sequence (P48061 22-89 limits assumed): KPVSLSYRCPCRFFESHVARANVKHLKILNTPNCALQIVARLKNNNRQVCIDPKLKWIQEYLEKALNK
T6 sequence (P78556 27-96): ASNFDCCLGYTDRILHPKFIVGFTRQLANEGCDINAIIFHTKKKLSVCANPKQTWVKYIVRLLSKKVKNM

| Sequence | binding to SDF1-α, stated in words (SDF1-α) | binding to RANTES with relatively high affinity (Relative Fluorescence Units) (RANTES; [1]) | binding to Eotaxin with relatively high affinity (Relative Fluorescence Units) (Eotaxin; [1]) | binding to MCP-1 with relatively high affinity (Relative Fluorescence Units) (MCP-1) | binding to IP-10, stated in words (IP-10) | binding to IP-10, stated in words (IP-10; listed as P8.8) | binding to Eotaxin, stated in words (Eotaxin) | binding to MCP-1, stated in words (MCP-1) | binding to MIP3-α, stated in words (MIP3-α) | binding to RANTES, stated in words (RANTES) |
| --- | --- | --- | --- | --- | --- | --- | --- | --- | --- | --- |
| DYDYGAPC [Ph-p30] | bound | > 15,000 RFU | > 15,000 RFU | > 15,000 RFU | – | – | – | – | – | – |
| WVFGAAMCK [Ph-p8.8] | bound | – | – | > 15,000 RFU | bound | bound specifically and differentially | bound | bound specifically and differentially | bound | – |
| WVFGNAMCK [P8] | – | – | – | – | – | – | – | – | – | bound specifically and differentially |
